Among the data in doi:10.1101/2024.05.21.594841 (bioRxiv, 2024) are normalized interacting score values, retold here.

Assay in all cases: split reporter
The target in one assay is T1, Mpd2p (S. cerevisiae, UniProt Q99316 23-277).
T1 sequence: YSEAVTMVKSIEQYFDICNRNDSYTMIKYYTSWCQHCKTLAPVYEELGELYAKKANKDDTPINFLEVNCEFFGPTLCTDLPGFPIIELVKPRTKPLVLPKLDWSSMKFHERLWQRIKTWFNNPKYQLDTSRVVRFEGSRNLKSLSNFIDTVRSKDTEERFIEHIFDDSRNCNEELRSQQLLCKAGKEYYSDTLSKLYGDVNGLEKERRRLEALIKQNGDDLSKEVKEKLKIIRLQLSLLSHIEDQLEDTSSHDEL

Another assay has as its target T2, Yos9p (S. cerevisiae, UniProt Q99220 22-542).
T2 sequence: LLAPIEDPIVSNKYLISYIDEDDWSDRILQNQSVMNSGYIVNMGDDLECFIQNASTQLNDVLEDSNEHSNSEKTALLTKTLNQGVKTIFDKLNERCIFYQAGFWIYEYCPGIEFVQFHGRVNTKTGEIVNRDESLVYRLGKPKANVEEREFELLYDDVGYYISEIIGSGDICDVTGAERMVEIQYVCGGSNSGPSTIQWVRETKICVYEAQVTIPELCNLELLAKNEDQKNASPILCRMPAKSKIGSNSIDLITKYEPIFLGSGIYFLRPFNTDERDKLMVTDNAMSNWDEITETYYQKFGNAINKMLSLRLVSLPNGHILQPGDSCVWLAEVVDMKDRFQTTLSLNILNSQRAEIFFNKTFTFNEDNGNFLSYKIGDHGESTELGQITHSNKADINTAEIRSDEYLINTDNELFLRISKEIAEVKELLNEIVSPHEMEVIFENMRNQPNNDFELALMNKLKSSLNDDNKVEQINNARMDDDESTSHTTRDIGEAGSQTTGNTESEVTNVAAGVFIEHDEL

In another assay the target is T3, Sec20p (S. cerevisiae, UniProt P28791 1-383).
T3 sequence: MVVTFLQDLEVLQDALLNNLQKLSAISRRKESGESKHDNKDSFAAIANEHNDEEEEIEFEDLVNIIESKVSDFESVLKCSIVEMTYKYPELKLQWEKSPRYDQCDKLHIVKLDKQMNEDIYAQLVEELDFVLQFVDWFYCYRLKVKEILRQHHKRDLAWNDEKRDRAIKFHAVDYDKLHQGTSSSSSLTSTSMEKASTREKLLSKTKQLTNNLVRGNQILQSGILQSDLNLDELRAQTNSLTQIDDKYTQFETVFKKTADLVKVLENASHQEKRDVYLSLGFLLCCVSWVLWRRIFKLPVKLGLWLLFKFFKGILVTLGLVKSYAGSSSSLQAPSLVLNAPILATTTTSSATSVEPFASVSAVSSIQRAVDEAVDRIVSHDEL

The target in the next assay is T4, Mpd1p (S. cerevisiae, UniProt Q12404 22-318).
T4 sequence: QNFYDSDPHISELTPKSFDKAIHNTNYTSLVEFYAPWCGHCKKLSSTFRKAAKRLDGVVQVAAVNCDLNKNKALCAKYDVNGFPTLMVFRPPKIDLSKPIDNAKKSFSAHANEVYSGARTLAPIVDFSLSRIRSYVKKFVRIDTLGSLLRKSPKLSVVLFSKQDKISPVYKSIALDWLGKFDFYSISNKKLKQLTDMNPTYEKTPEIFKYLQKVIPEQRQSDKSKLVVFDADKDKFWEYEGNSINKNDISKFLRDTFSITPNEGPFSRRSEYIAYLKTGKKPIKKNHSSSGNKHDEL

Another assay deals with Kar2p (S. cerevisiae, UniProt P16474 43-682).
For the next assay, the target named is T5, Eug1p (S. cerevisiae, UniProt P32474 30-517).
T5 sequence: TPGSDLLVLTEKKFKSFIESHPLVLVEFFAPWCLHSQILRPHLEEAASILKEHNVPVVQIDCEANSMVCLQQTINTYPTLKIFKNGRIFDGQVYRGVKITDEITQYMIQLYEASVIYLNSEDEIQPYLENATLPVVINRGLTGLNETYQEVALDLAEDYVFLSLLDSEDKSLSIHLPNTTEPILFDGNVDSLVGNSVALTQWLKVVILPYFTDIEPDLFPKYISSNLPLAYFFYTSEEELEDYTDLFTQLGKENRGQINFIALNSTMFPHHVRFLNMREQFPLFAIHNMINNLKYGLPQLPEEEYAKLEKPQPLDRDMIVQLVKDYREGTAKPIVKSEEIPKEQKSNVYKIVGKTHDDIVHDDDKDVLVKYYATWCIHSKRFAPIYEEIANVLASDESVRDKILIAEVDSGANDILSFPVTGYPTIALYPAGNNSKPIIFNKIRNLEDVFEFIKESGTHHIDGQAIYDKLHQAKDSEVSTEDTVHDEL

Some results are limits rather than exact numbers.

Chain of Kar2p (P16474 43-682): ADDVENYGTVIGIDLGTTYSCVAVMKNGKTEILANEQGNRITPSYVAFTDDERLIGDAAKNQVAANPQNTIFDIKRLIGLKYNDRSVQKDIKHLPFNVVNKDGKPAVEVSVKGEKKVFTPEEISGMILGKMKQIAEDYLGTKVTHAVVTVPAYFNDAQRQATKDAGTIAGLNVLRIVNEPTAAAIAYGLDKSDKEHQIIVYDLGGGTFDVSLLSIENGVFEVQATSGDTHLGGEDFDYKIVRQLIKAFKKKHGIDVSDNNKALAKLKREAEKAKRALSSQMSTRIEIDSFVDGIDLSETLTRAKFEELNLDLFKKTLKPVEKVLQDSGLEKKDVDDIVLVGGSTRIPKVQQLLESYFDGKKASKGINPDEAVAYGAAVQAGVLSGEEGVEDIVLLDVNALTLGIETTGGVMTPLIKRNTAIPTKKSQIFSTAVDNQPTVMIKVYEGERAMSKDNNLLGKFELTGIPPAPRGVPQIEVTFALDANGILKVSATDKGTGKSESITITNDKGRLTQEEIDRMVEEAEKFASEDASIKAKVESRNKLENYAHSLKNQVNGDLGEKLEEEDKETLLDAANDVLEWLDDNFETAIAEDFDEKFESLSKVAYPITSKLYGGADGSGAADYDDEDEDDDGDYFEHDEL

B1: Lhs1p (natural protein)
chain: AVLGVDYGQQNIKAIVVSPQAPLELVLTPEAKRKEISGLSIKRLPGYGKDDPNGIERIYGSAVGSLATRFPQNTLLHLKPLLGKSLEDETTVTLYSKQHPGLEMVSTNRSTIAFLVDNVEYPLEELVAMNVQEIANRANSLLKDRDARTEDFVNKMSFTIPDFFDQHQRKALLDASSITTGIEETYLVSEGMSVAVNFVLKQRQFPPGEQQHYIVYDMGSGSIKASMFSILQPEDTTQPVTIEFEGYGYNPHLGGAKFTMDIGSLIENKFLETHPAIRTDELHANPKALAKINQAAEKAKLILSANSEASINIESLINDIDFRTSITRQEFEEFIADSLLDIVKPINDAVTKQFGGYGTNLPEINGVILAGGSSRIPIVQDQLIKLVSEEKVLRNVNADESAVNGVVMRGIKLSNSFKTKPLNVVDRSVNTYSFKLSNESELYDVFTRGSAYPNKTSILTNTTDSIPNNFTIDLFENGKLFETITVNSGAIKNSYSSDKCSSGVAYNITFDLSSDRLFSIQEVNCICQSENDIGNSKQIKNKGSRLAFTSEDVEIKRLSPSERSRLHEHIKLLDKQDKERFQFQENLNVLESNLYDARNLLMDDEVMQNGPKSQVEELSEMVKVYLDWLEDASFDTDPEDIVSRIREIGILKKKIELYMDSAKEPLNSQQFKGMLEEGHKLLQAIETHKNTVEEFLSQFETEFADTIDNVREEFKKIKQPAYVSKALSTWEETLTSFKNSISEIEKFLAKNLFGEDLREHLFEIKLQFDMYRTKLEEKLRLIKSGDESRLNEIKKLHLRNFRLQKRKEEKLKRKLEQEKSRNNNETESTVINSADDKTTIVNDKTTESNPSSEEDILHDEL
Regarding B1, the normalized interacting score was greater than 40% in the assay with Mpd2p; greater than 40% in the assay with Yos9p; 20% with Sec20p; 18% with Mpd1p; 93% with Kar2p; greater than 40% with Eug1p.
